According to patent US9605283B2, “Microorganism modified for the production of 1,3-propanediol” (INSTITUT NATIONAL DES SCIENCES APPLIQUÉES, priority 2012, dated 2017):
Changes are numbered by the printed parent chain. Numbers in names are those of the source.

Legend:
Assay type in all cases: biochemical
[1] = Lactate dehydrogenase activity (natural substrate)
[2] = DHB dehydrogenase activity of membrane-associated enzyme (DHB-dependent reduction of DCIP)
Protocol: Activity of the membrane-associated DHB dehydrogenase (Ec-LldD) was assayed by following the DHB-dependent reduction of 2,6-dichloroindophenol (DCIP). (L)-2,4-dihydroxybutyrate+DCIPox→2-oxo-4-hydroxybutyrate+DCIPred Reaction scheme 2:
Reactions were started by adding 20 mM (L)-2,4-dihydroxybutyrate (Rhodia).

[3] = Branched-chain alpha-ketoacid decarboxylase activity (coupled to horse liver alcohol dehydrogenase)
Protocol: (§1) OHB decarboxylase activity was assayed by coupling the decarboxylase activity to the NADPH-dependent reduction of the released 3-hydroxypropanal by purified aldehyde reductase, YqhD, from E. coli. The decarboxylation of pyruvate was coupled to the NADH-dependent reduction of acetaldehyde catalysed by yeast alcohol dehydrogenase. Branched-chain alpha-ketoacid decarboxylase activity was measured on 4-methyl-2-oxovaleric acid by coupling to the NADH-dependent reduction of 3-methylbutanal catalysed by horse liver alcohol dehydrogenase. […] Reactions were started by adding 20 mM 2-oxo-4-hydroxybutyrate (OHB), 10 mM 4-methyl-2-oxovaleric acid (MOV), or 5 mM pyruvate.

[4] = OHB decarboxylase activity (coupled to YqhD, NADPH); conditions: for Effect of mutation on activity and/or specificity for OHB (in words): versus wild-type enzyme
Protocol: as §1

[5] = PDO dehydrogenase activity (PDO-dependent reduction of NADP); conditions: 100 mM 1,3-propanediol, 10 mM NADP, 37° C., pH 8
Protocol: PDO dehydrogenase activity was assayed by following the PDO-dependent reduction of NADP. 1,3-propanediol+NADP^+→3-hydroxypropional+NADPH Reaction scheme:
Reactions were started by adding 100 mM 1,3-propanediol (PDO, Sigma).

[6] = activity measured at 10 mM MOV (KdcA mutants), Table 10
[7] = activity measured at 20 mM OHB, Table 10

B1: Ec-LldD: membrane associated (L)-lactate dehydrogenase of E. coli, SEQ ID No. 122 (protein, listed as Escherichia coli)
chain: MIISAASDYRAAAQRILPPFLFHYMDGGAYSEYTLRRNVEDLSEVALRQRILKNMSDLSLETTLFNEKLSMPVALAPVGLCGMYARRGEVQAAKAADAHGIPFTLSTVSVCPIEEVAPAIKRPMWFQLYVLRDRGFMRNALERAKAAGCSTLVFTVDMPTPGARYRDAHSGMSGPNAAMRRYLQAVTHPQWAWDVGLNGRPHDLGNISAYLGKPTGLEDYIGWLGNNFDPSISWKDLEWIRDFWDGPMVIKGILDPEDARDAVRFGADGIVVSNHGGRQLDGVLSSARALPAIADAVKGDIAILADSGIRNGLDVVRMIALGADTVLLGRAFLYALATAGQAGVANLLNLIEKEMKVAMTLTGAKSISEITQDSLVQGLGKELPAALAPMAKGNAA
- Max. specific activity, lactate ([1]; E. coli LldD, Table 6): 6.22 µmol/mg/min
- Max. specific activity, Natural substrate ([1]; natural substrate (L)-lactate, Table 2): 6.22 µmol/mg/min
- Specificity ([2]; (Vmax/Km)DHB/(Vmax/Km)nat. substrate, natural substrate lactate): 0.006
- Max. specific activity, DHB ([2]; DCIP assay, Table 2): 0.37 µmol/mg/min
- Max. specific activity, DHB ([2]; E. coli LldD, Table 6): 0.37 µmol/mg/min
- DHB dehydrogenase activity (in words) ([2]; membrane-associated enzyme): have DHB dehydrogenase activity

B2: Ll-KdcA: branched-chain alpha-ketoacid decarboxylase from L. lactis, SEQ ID No. 130 (protein, listed as Lactococcus lactis)
chain: MYTVGDYLLDRLHELGIEEIFGVPGDYNLQFLDQIISREDMKWIGNANELNASYMADGYARTKKAAAFLTTFGVGELSAINGLAGSYAENLPVVEIVGSPTSKVQNDGKFVHHTLADGDFKHFMKMHEPVTAARTLLTAENATYEIDRVLSQLLKERKPVYINLPVDVAAAKAEKPALSLEKESSTTNTTEQVILSKIEESLKNAQKPVVIAGHEVISFGLEKTVTQFVSETKLPITTLNFGKSAVDESLPSFLGIYNGKLSEISLKNFVESADFILMLGVKLTDSSTGAFTHHLDENKMISLNIDEGIIFNKVVEDFDFRAVVSSLSELKGIEYEGQYIDKQYEEFIPSSAPLSQDRLWQAVESLTQSNETIVAEQGTSFFGASTIFLKSNSRFIGQPLWGSIGYTFPAALGSQIADKESRHLLFIGDGSLQLTVQELGLSIREKLNPICFIINNDGYTVEREIHGPTQSYNDIPMWNYSKLPETFGATEDRVVSKIVRTENEFVSVMKEAQADVNRMYWIELVLEKEDAPKLLKKMGKLFAEQNK
- Max. specific activity, Natural substrate ([3]; natural substrate 4-methyl-2-oxovaleric, Table 8): 4 µmol/mg/min
- Max. specific activity, OHB ([4]; when not saturated, activity estimated at 20 mM substrate, Table 8): 0.08 µmol/mg/min
- OHB decarboxylase activity (in words) ([4]; wild-type enzymes): significant OHB decarboxylase activity

B3: Ll-KdcA V461I: L. lactis KdcA mutant V461I, SEQ ID No. 198 (protein, listed as Lactococcus lactis)
chain: B2 chain with V461I
- Max. specific activity, Natural substrate [3, 6]: 2.76 µmol/mg/min
- Max. specific activity, OHB [4, 7]: 0.24 µmol/mg/min
- Effect of mutation on activity and/or specificity for OHB (in words) [4]: increased activity and/or specificity for OHB

B4: Ll-KdcA G402S: L. lactis KdcA mutant G402S, SEQ ID No. 196 (protein, listed as Lactococcus lactis)
chain: B2 chain with G402S
- Max. specific activity, Natural substrate [3, 6]: 3.1 µmol/mg/min
- Max. specific activity, OHB [4, 7]: 0.09 µmol/mg/min
- Effect of mutation on activity and/or specificity for OHB (in words) [4]: increased activity and/or specificity for OHB

B5: Ec-YqhD: alcohol dehydrogenase yqhD from Escherichia coli, used as PDO dehydrogenase (protein, UniProt Q46856 1-387, looked up)
NADPH-dependent aldehyde …: MNNFNLHTPTRILFGKGAIAGLREQIPHDARVLITYGGGSVKKTGVLDQVLDALKGMDVLEFGGIEPNPAYETLMNAVKLVREQKVTFLLAVGGGSVLDGTKFIAAAANYPENIDPWHILQTGGKEIKSAIPMGCVLTLPATGSESNAGAVISRKTTGDKQAFHSAHVQPVFAVLDPVYTYTLPPRQVANGVVDAFVHTVEQYVTKPVDAKIQDRFAEGILLTLIEDGPKALKEPENYDVRANVMWAATQALNGLIGAGVPQDWATHMLGHELTAMHGLDHAQTLAIVLPALWNEKRDTKRAKLLQYAERVWNITEGSDDERIDAAIAATRNFFEQLGVPTHLSDYGLDGSSIPALLKKLEEHGMTQLGENHDITLDVSRRIYEAAR
- PDO dehydrogenase activity [5]: 0.15 µmol/min/mg
